# The DeepSol protein solubility set
# Assay: soluble on expression in E. coli; label from the status in PepcDB or PDB records
row,Sequence,soluble on expression in E. coli
1,GEDPAIQVTGARGASVDMSTLDAVTTALDKEHLSHKSIAFENGSILVRFNDTDTQISARDVISEALGKDKIVALNLAPSTPDWLEAIGASPLKLGLDLRGGVHFLMEVDMDAAMEKLVGQQEEAFRSELRDAKIRYRAIRPSGKEGVEVLLRDEEQLAEAKRTLTKNHPDMNFVESDSNGRYALIATFTEQRLQEIRNYAVEQNITILRNRVNELGVAEPLVQRQGASRIVVELPGVQDTARAKEILGATATLEFREVDDKADLAAAANGRAPAGSEIKQDRDGRPVVLKKRVILSGASITDASSSVDEYGRPQVNISLDSEGGNKMSAFSKKNIGKLMATVFAEYKDSGRKTPEGKVILTKHEEVINQATIQSALGRNFRITGIDSAAEAHN,not soluble
2,GEEKKDSKAFIDVSAATLWTAPDSLRPIDVPSATNPVDLWKWTKSMTLDEKLWLTNANKLETQALLGQEVTVVDKKGDWVKVLVHGQPTPRNEEGYPGWMPEKQLTYNQEFADKTNEPFVLVTKPTAILYINPSEKHKSLEVSYNTRLPLLSEDTISYRVLLPNGQKAWLRKNDGTFYRSQNDIPTPAADDLINTGKMFLGLPYIWAGTSGFGFDCSGFTHTIYKSHGITIPRDSGPQSRNGVAVDKEHLQKGDLIFFAHDQGKGSVHHVAMYIGDGNMIHSPRAERSVEIIPLNTPGYIEEYAGARRYLP,soluble
3,GEGLGEEVIEEVYEELLSSFDTEYGGFSGAPKFPTPHKISFLLRYWRRSRNPEALHMAEYTLDKMRRGGIYDHLGSGFHRYSTDSMWLLPHFEKMLYDQALTAIAYTEAYQVTGKDLYKETAEGILDYVLRDLTSPEGGFYCGEDADVEREEGKYYLWTLEEIRSILDPEDSELIIKMFNLREEGNFEEEIRGRETGTNLFYMARSPGSLAAKMKIPVEEVEKKVKAAREKLLKARYERKRPSLDDKILTDWNGLMIAAFAKGYQVFGEQRYLKAAEKAADFILMALYSPGDGLLHRYRDGVAGISGTSDDYAFLIHGLLELYEAGFKMRYLKAAVSLNSELLECFWDPVNGGLYFTANDSEALIFRKKE,not soluble
4,GETSVPPGSALVGPSCVMDDFRDPQRWKECAKQGKMPCYFDLIEENVYLTERKKNKSHRDIKRMQCECTPLSKDERAQGEIACGEDCLNRLLMIECSSRCPNGDYCSNRRFQRKQHADVEVILTEKKGWGLRAAKDLPSNTFVLEYCGEVLDHKEFKARVKEYARNKNIHYYFMALKNDEIIDATQKGNCSRFMNHSCEPNCETQKWTVNGQLRVGFFTTKLVPSGSELTFDYQFQRYGKEAQKCFCGSANCRGYLGGENRVSIRAAGGKMKKERSRK,soluble
5,GGCYERIFAVPQQERTSLRVVTALAHGCDLVITRAGPTPRTYTPLQTQRFRNSLRSDAGCVIMMGDHVVSPAARLASAVVGYHGIGKGTGRIKAVEITVTGIAKGFYRTSRVIVGKHIAPAAEKTTMKVV,not soluble
6,GGQIVHTETTEVVLCGDPLSGFGLQLQGGIFATETLSSPPLVCFIEPDSPAERCGLLQVGDRVLSINGIATEDGTMEEANQLLRDAALAHKVVLEVEFD,soluble
7,GGSCFKCGKKGHFAKNCHEHAHNNAEPKVPGLCPRCKRGKHWANECKSKTDNQGNPIPPH,soluble
8,GGVRPATNAYGGGSTTDNPNRFMYYPSHPVPGTQGGVVLAAYSWSDDAARWDSFDDAERYGYALENLQSVHGRRIEVFYTGAGQTQSWLRDPYACGEAAVYTPHQMTAFHLDVVRPEGPVYFAGEHVSLKHAWIEGAVETAVRAAIAVNEAPVGDTGVTAAAGRRGAAAATEPMREEALTS,soluble
9,GHHHHHHAIAENLYFQSAQYKGAASEAGRAMHLMKKREKQREQMEQMKQRIAEENIMKSNIDKKFSAHYDAVEAELKSSTVGLVTLNDMKAKQEALVKEREKQLAKKEQSKELQMKLEKLREKERKKEAKRKISSLSFTLEEEEEGGEEEEEAAMYEEEMEREEITTKKRKLGKNPDVDTSFLPDRDREEEENRLREELRQEWEAKQEKIKSEEIEITFSYWDGSGHRRTVKMRKGNTMQQFLQKALEILRKDFSELRSAGVEQLMYIKEDLIIPHHHSFYDFIVTKARGKSGPLFNFDVHDDVRLLSDATVEKDESHAGKVVLRSWYEKNKHIFPASRWEPYDPEKKWDKYTIR,not soluble
10,GHHHHHHLEKCVFVTVGTTSFDDLIACVSAPDSLQKIESLGYNRLILQIGRGTVVPEPFSTESFTLDVYRYKDSLKEDIQKADLVISHAGAGSCLETLEKGKPLVVVINEKLMNNHQLELAKQLHKEGHLFYCTCSTLPGLLQSMDLSTLKCYPPGQPEKFSAFLDKVVGLQK,not soluble
11,GHHHHHHMKVGYVAIVGKPNVGKSTLLNNLLGTKVSIISPKAGTTRMRVLGVKNIPNEAQIIFLDTPGIYEPKKSDVLGHSMVEIAKQSLEEADVILFMIDATEGWRPRDEEIYQNFIKPLNKPVIVVINKIDKIGPAKNVLPLIDEIHKKHPELTEIVPISALKGANLDELVKTILKYLPEGEPLFPEDMITDLPLRLLAAEIVREKAMMLTREEVPTSIAVKINEIKPGDANPNMLVIKGEIIVDRENLKPIIIGKKGQRLKEIGKRARQELELILGRPVYLELWVKVVPDWRRRPEYVRLFGYAL,soluble
12,GHMAGGTKRLPRAVREQQMLDAAVDVFSDRGFHETSMDAIAAKAEISKPMLYLYYGSKDELFAACIQREGLRFVEALAPAGDPGLSPREQLRRALEGFLGFVGKHRKSWMVLYRQAMGQQAFVGSVQSSRDRLIELTAHLLESSTKDPEPGQDFELIAIALVGAGEAVADRVAGGEIEVDAAADLLESLAWRGLAGKKKPEGS,soluble
13,GHMASVTRAVFGELPSGGGTVEKFQLQSDLLRVDIISWGCTITALEVKDRQGRASDVVLGFAELEGYLQKQPYFGAVIGRVANRIAKGTFKVDGKEYHLAINKEPNSLHGGVRGFDKVLWTPRVLSNGVQFSRISPDGEEGYPGELKVWVTYTLDGGELIVNYRAQASQATPVNLTNHSYFNLAGQASPNINDHEVTIEADTYLPVDETLIPTGEVAPVQGTAFDLRKPVELGKHLQDFHLNGFDHNFCLKGSKEKHFCARVHHAASGRVLEVYTTQPGVQFYTGNFLDGTLKGKNGAVYPKHSGFCLETQNWPDAVNQPRFPPVLLRPGEEYDHTTWFKFSVA,soluble
14,GHMIARGKFRSLTLINWNGFFARTFDFDELVTTLSGGNGAGKSTTMAGFVTALIPDLTLLNFRNTTEAGSTSSSRDKGLYGKLKAGVCYAVLETVNSRAQRIITGVRLQQIAGRDKKVDIRPFSLQNVPMTDSVISLFTEQVANKARVLSLNDLKEKFEETAVTFKPYHSITDYHSFMFDLGILPKRLRSSSDRNKFYKLIEASLYGGISSVITKSLRDYLLPENSGVRQAFQDMEAALRENSGGSGGSISAESVANILRKTIQREQNRILQLNQGLQNIAFGQVKGVRLVVNIRDTHSILLNALSDQHEQHKDLFESQKLSFSEALAMLYKRINPHIELGQRMPQTIGEELLDYRNYLDLEVETLRGAYGWMRAESSALSTGEAIGTGMSILLMVVQSWEEESRRMRAKDILPCRLLFLDQAARLDAMSINTLFELCERLDMQLLIAAPENISPERGTTYKLVRKILANQEYVHVVGLKGFG,soluble
15,GHMSESREARLIIFHAGSLSIPLSQVEEKFTKYAQEKLGVKVTFQDEASGSVKAVRKVTDLKKRADIVAVADYTLIPQLMIPNYTDFYVLFATNEIVIAFTNKSKYADEMLKNPDKWYEILSRPDVSFGFSDPNQDPCGYRSVMVMKLAELYYGRPIFKELVEKTTNIYSNGTRIYAPKEIIIKDKRVIMRPKETDLVGLVESGSLDYIFIYKSVAKQHHLSYITLPDDINLGDFNKADFYGRVSITLGSTGKTIKAKPIVYGITVLKNAPNRELAIEFLRFLLGNEGRKIFEDNYQEFLSPPVAFGNVPPEIRRLVEVK,soluble
16,GIYQHFSIEDRPFLDKGMEWIKKVEDSYAPFLTPFINPHQEKLLKILAKTYGLACSSSGEFVSSEYVRVLLYPDYFQPEFSDFEISLQEIVYSNKFEYLTHAKILGTVINQLGIERKLFGDILVDEERAQIMINQQFLLLFQDGLKKIGRIPVSLEERPFTEKID,soluble
17,GKDWNWNVGGVLGYNKNKVTYVNVKAPAIFLQFDYPAAYPRVGVPYNAIYGYLWAGLDSKGQPQVYDSEGNIHVSSSPQKVEDAVYLGTSVPVYSGAINTNLRYKNWELAAQLLFEGGHKMRNTNIAYPGLGVTSKDVSKRWRQPGDEAYTDVPRYVPSESKDYNSYSSDLYSKASIHVLDADNWRLKNLSVTYHVPASVCQKFYVKNARIMLGMENVFTLAKSRDVKWMLGGYSKPNYLCNVNLNF,not soluble
18,GKLKKKGYLRIVTTQGSLNIELHADMAPRACDSFLRLCAVKYFDDTIFHRCIRNFMIQGGRAELRQPSKKKEVQQSPRSISGFPGGAPFEDEFDNRLVHQGIGVLSMANDGKHSNLSEFFITFKSCEHLNNKHTIFGRVVGGLDVLRQWEKLETDKKDKPLKPPKVEEIIVFKNPFEDARKEMEDEKREEEEKEKKKLENA,soluble
19,GKQKQYLFEARDITSRKLMEDKLYQRESSLRNYYEQQPVMMVTLDSHNRIQEVNRFAQLLLGYEPIEMLGHRLREFYLDDKALFPRQVLLQPSHQVHDVWRREIEYRHADGHSVWVRENIRPLNDSD,not soluble
20,GKSIFDKLWDRHVITGKEGEPQLMYVDQHYIHEVTSPQAFQGLRDAGRKVRRPDLTFGTFDHNVPTVNIYDIRDVISKAQMDALARNVIEFNIPHADHGSENQGIVHMVGPETGRTQPGKFIVCGDSHTATHGAFGAIGFGIGTTEVEHVFATQTIWQVKPKK,not soluble
21,GMADKTGTPHPLTEPGVWIERIGGRVFPPHLPALFLDRDGTINVDTDYPSDPAEIVLRPQMLPAIATANRAGIPVVVVTNQSGIARGYFGWSAFAAVNGRVLELLREEGVFVDMVLACAYHEAGVGPLAIPDHPMRKPNPGMLVEAGKRLALDLQRSLIVGDKLADMQAGKRAGLAQGWLVDGEAAVQPGFAIRPLRDSSELGDLLAAIETLGRDNRS,soluble
22,GMAEDQTVLAIDIGGSHVKIGLSTDGEERKVESGKTMTGPEMVAAVTAMAKDMTYDVIAMGYPGPVVHNKPLREPVNLGEGWVGYDYEGAFGRPVRIVNDALMQAIGSYNGGRMLFLGLGTGLGAAMIVENVAQPMEIAHLPYRKGKTYEHYVSEAYREKKGNAKWQKRVQDVVERLSAALEPDEVVIGGGNVERLENLPPKCRRGDNAMAFEGGFRLWKNADLIV,soluble
23,GMALTPDQMPDRAEVVFTCNGKAVGKMRNELDVAMVKPFEERFALATDEGAFHGGDASAPPPLALFIAGLTGCVMTQIRAFAKRLKVTVTDLDVECRVVWDWAKAGPVYETGPKSFEIDIILHSPDPIEAQQALIEAAKKGCFLEQTLGQANTIRHRLKVGDTFIDA,soluble
24,GMATNSSTEQSLTKKVWNLATTLAGQGIGFTDYITQLTYLLFLKMDAENVEMFGEESAIPTGYQWADLIAFDGLDLVKQYEETLKLLSELDNLIGTIYTKAQNKIDKPVYLKKVITMIDEEQWLIMDGDVKGAIYESILEKNGQDKKSGAGQYFTPRPLIQAMVDCINPQMGETVCDPACGTGGFLLTAYDYMKGQSASKEKRDFLRDKALHGVDNTPLVVTLASMNLYLHGIGTDRSPIVCEDSLEKEPSTLVDVILANPPFGTRPAGSVDINRPDFYVETKNNQLNFLQHMMLMLKTGGRAAVVLPDNVLFEAGAGETIRKRLLQDFNLHTILRLPTGIFYAQGVKANVLFFSKGQPTKEIWFYDYRTDIKHTLATNKLERHHLDDFVSCYNNRVEIYDAENNPQGRWRKYPVDEIIARDKTSLDITWIKPGGEVDDRSLAEL,soluble
